Measured values as given in patent publication US8440413B2, “Method of screening for a substance that strengthens a bond between thioredoxin and macrophage migration inhibition factor” (Redox Bioscience, Inc., priority 2006, dated 2013).
Substitutions are numbered along the chain they refer to. Like-named read-outs stand apart in the source and are kept apart here. One block for each molecule: values may come before it.

Legend:
[1] = biological target: T1, bond between rTRX and rMIF (Homo sapiens, UniProt P10599); assay: Screening by molecular interaction analysis (Biacore, SPR) for substances that strengthen the bond between TRX and MIF, Example 7; format: binding; conditions: analyte: rTRX 5 μM mixed with test substance 500 μM (Prostaglandin I2 also 5 μM); compared with rTRX only (FIGS. 7 to 11)
T1 construct: His tag; made in house; host or cells: Escherichia coli
T1 sequence (P10599 1-105): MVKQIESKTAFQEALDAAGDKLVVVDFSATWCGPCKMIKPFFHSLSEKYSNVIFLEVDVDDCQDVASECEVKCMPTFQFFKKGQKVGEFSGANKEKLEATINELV
Description: For several test substances, it was confirmed with a molecular interaction analysis whether they strengthened the bond between TRX and MIF or not. rMIF was immobilized in a CM5 sensor chip as a ligand. The ligand was adjusted to have the rMIF concentration of less or equal to 200 nM by using running buffer, 10 mM HEPES (pH7.4), 150 mM NaCl, 3 mM EDTA and 0.005% Tween 20. […] In each analyte, the concentration of rTRX was 5 μM and the concentration of the test substance was 500 μM. For Prostaglandin I2, the analyte having its concentration of 5 μM was also analyzed.

MIF [2] = biological target: T2, MIF (Homo sapiens, UniProt P14174); assay: Immunoprecipitation / Western blotting of the bond between TRX and MIF in cells; format: cell-based; conditions: ATL2 cells and HL60 cells; anti MIF antibody immunoprecipitation, anti TRX Western blotting (FIG. 1)
T2 construct: endogenous in cells; host or cells: ATL2 cells (concentrated culture supernatant)
T2 sequence (P14174 1-115): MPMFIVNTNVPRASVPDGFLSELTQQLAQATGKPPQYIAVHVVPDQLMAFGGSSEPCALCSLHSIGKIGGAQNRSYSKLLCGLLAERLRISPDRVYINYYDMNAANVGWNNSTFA
Description: The bonds between TRX and MIF in ATL2 cells and HL60 cells were confirmed with an immunoprecipitation method (to be described in detail below).
The cells were cultured with RPMI 1640 (SIGMA Inc.) medium containing 10% FCS, 100 U/ml penicillin and 100 μg/ml streptomycin in a 175 cm^2 flask.
1×10^7˜8/cell of the cells were collected and centrifugated at 1,000 rpm and 4° C. for 15 minutes. The obtained precipitation was dissolved with lysis buffer and left on the ice for 30 minutes.
The solution was centrifugated at 1,000 rpm and 4° C. for 15 minutes. The obtained supernatant was used for the immunoprecipitation experiment. The concentration of the protein was measured with DC protein assay kit (BIO RAD Inc.).
20 μl Protein G Sepharose and 500 μg of the cell solution were added to a microtube, and phosphate buffer was used to adjust the amount to 1 ml. The obtained solution was reacted at 4° C. for 3 hours with a small rotary incubator. The cell solution was centrifugated at 15,000 rpm and 4° C. for 2 minutes. The obtained supernatant was added to a new microtube, and 20 μl Protein G Sepharose and 4 μg/ml anti MIF antibody were also added thereto.
(§1) For a control, anti Rabbit antibody was used instead of the anti MIF antibody.
The reaction was carried out with a small rotary incubator at 4° C. for overnight. The reaction solution was centrifugated at 15,000 rpm and 4° C. for 2 minutes. […]

MIF [3] = biological target: T2, MIF; assay: Immunoprecipitation / Western blotting of the bond between TRX and MIF outside ATL2 cells (culture supernatant); format: binding; conditions: anti MIF antibody immunoprecipitation, anti TRX Western blotting (FIG. 2)
Description: The bond between TRX and MIF outside ATL2 cells was confirmed with an immunoprecipitation method.
1×10^5/cell of the ATL2 cells were cultured with RPMI 1640 (SIGMA Inc.) medium containing 100 U/ml penicillin and 100 μg/ml streptomycin in a 175 cm^2 flask for 3 days. Then, the medium was collected and centrifugated at 10,000 rpm and 4° C. for 15 minutes. Then, FCS was added to the obtained supernatant to adjust the final concentration to 10%, and the solution was concentrated with Amicon ultra-4. The obtained concentrated-solution was used for the immunoprecipitation experiment. 20 μl Protein G Sepharose and 30 μl of the culture supernatant were added to a microtube, and phosphate buffer was used to adjust the amount to 1 ml. The obtained solution was reacted at 4° C. for 3 hours with a small rotary incubator. The cell solution was centrifugated at 15,000 rpm and 4° C. for 2 minutes. The obtained supernatant was added to a new microtube, and 20 μl Protein G Sepharose and 4 μg/ml of the anti MIF antibody were also added thereto.
as §1
The reaction was carried out with a small rotary incubator at 4° C. for overnight. The reaction solution was centrifugated at 15,000 rpm and 4° C. for 2 minutes. The precipitation was washed with washing buffer (50 mM Tris-HCl (pH7.5), 150 mM NaCl, 0.1% NP40). […]

ATL2 cells = assay: Inhibition of the cell internalization of MIF into ATL2 cells (Western blotting, densitometer); format: cell-based, human; conditions: rTRX 0 to 250 μg/ml, 25 μg/ml rMIF, 24 hours (FIG. 3)
Description: MIF is internalized (incorporated) into cells by the autocrine or paracrine action to induce the production of inflammatory cytokine TNF-alpha(α) or IL-1. Thus, the effects of TRX on the cell internalization of MIF were examined to clarify the inflammation response control mechanism.
ATL2 cells were cultured with RPMI 1640 medium containing 10% FCS, 100 U/ml penicillin and 100 μg/ml streptomycin in a 75 cm^2 flask.
1×10^6/cell of ATL2 cells were added to a 24 well plate. rTRX having the final concentration of 0 to 250 μg/ml and 25 μg/ml rMIF were also added thereto, and cultured under the condition of […] at 37° C. for 24 hours.
After cells were collected, the precipitation was mixed with SDS-PAGE sample buffer, and then electrophoresed on a 15% SDS-PAGE gel. After the electrocataphoresis, a Western blotting was performed to detect MIF internalized in the cells with anti His-tagged antibody. The change of the band by the Western blotting was analyzed with a densitometer.

RAW 264.7 cells = assay: Inhibition of MIF activity measured as TNF-alpha production in RAW 264.7 cells (ELISA); format: cell-based, mouse; conditions: MIF 10 ng/ml, 0 to 500 ng/ml TRX, LPS 100 ng/ml (FIG. 4)
Description: TRX's inhibition of MIF activity was confirmed by measuring a concentration of inflammatory cytokine TNF-α (to be described in detail below).
RAW 264.7 cells were cultured with RPMI 1640 medium containing 10% FCS, 100 U/ml penicillin and 100 μg/ml streptomycin in a 75 cm^2 flask.
RAW 264.7 cells were added to a 24 well plate (1×10^6/cell). MIF having a final concentration of 10 ng/ml and 0 to 500 ng/ml TRX were also added thereto, and left under the condition of 5% CO2 at 37° C. for 4 hours.
Further, 100 ng/ml of LPS was added to the plate (described as LPS (+)), and the plate was left under the condition of 5% CO2 at 37° C. for 4 hours. Then, the medium was collected.
Amount of the generated TNF-alpha (α) was measured with Duo Set ELISA Development system mouse TNF-α kit.
The measuring method was based on the protocol attached to the kit.

rMIF [4] = biological target: T3, rMIF (Homo sapiens, UniProt P14174); assay: Molecular interaction analysis (Biacore, SPR) of the bond between rTRX and rMIF, Example 5; format: binding; conditions: rMIF immobilized on CM5 sensor chip; rTRX 2 to 12 μM (FIG. 5)
T3 construct: His tag; made in house; host or cells: Escherichia coli
T3 sequence (P14174 1-115): T2 sequence (P14174 1-115)
Description: The bond between TRX and MIF was confirmed with a molecular interaction analysis (Biacore) (hereinafter, referred to as “molecular interaction analysis”) utilizing surface plasmon resonance (SPR) phenomenon.
rMIF was immobilized in a CM5 sensor chip as a ligand. The ligand was adjusted to include MIF less or equal to 200 nM by using running buffer, 10 mM HEPES (pH7.4), 150 mM NaCl, 3 mM EDTA and 0.005% Tween 20.
Then, rTRX was used as an analyte to analyze the interaction between rTRX and rMIF. The concentration of rTRX was changed to 2 μM, 4 μM, 6 μM, 8 μM, 10 μM and 12 μM for the analysis.

rMIF [5] = biological target: T3, rMIF; assay: Molecular interaction analysis (Biacore, SPR) of rTRX variants and rMIF in oxidation and reduction states, Example 6; format: binding; conditions: for change of the dissociation constant value between oxidation state and reduction state: oxidation state versus reduction state; for Kd: rMIF immobilized on CM5 sensor chip, read-out: KD (dissociation constant value)
Description: It was confirmed with a molecular interaction analysis whether the cysteine residues at 32 and 35 positions (the active site of TRX) affect the bond between TRX and MIF or not.
rMIF was immobilized in a CM5 sensor chip as a ligand, wherein the concentration of rMIF was adjusted to less than or equal to 200 nM.
Then, rWT TRX, rDM TRX and rC35S TRX were used as analytes to analyze the interaction between these rTRX and rMIF in both oxidation and reduction states, respectively.
In the oxidation state, running buffer, 10 mM HEPES (pH7.4), 150 mM NaCl, 3 mM EDTA and 0.005% Tween 20 were used to adjust the ligand. In the reduction state, 1M DTT was used in addition to the running buffer, 10 mM HEPES (pH7.4), 150 mM NaCl, 3 mM EDTA and 0.005% Tween 20 to adjust the ligand.
Tables 1 and 2 show the dissociation constant value (KD value) calculated from FIG. 6.

[6] = reduction state (DTT added to running buffer)

Molecule: N[C@@H](CCC(=O)N[C@@H](CSN=O)C(=O)NCC(=O)O)C(=O)O [Nitrosoglutathione]
- effect of the test substance on the bond between rTRX and rMIF [1]: remarkably strengthen the bond between rTRX and rMIF

Molecule: CCCCC[C@H](O)/C=C/[C@@H]1[C@H]2C/C(=C/CCCC(=O)O)O[C@H]2C[C@H]1O [Prostaglandin I2]
- effect of the test substance on the bond between rTRX and rMIF [1]: remarkably strengthen the bond between rTRX and rMIF

B1: rTRX: Recombinant thioredoxin; His-tagged, expressed in Escherichia coli (Examples 5-7); from Ajinomoto in Examples 3-4 (protein)
chain: T1 sequence (P10599 1-105)
modifications: left off: small tags and cut ends
- bond between TRX and MIF in cells (MIF [2]): bonds directly with MIF
- bond between TRX and MIF outside cells (MIF [3]): bonds directly with MIF
- internalization of MIF into cells (ATL2 cells): inhibits the internalization of MIF into the ATL2 cells
- inhibition of rMIF activity (RAW 264.7 cells): inhibits the activity of rMIF depending on the concentration of rTRX
- production of MIF-derived TNF-alpha (RAW 264.7 cells): inhibits the production of MIF-derived TNF-alpha
- bond between rTRX and rMIF (surface plasmon resonance) (rMIF [4]): concentration-dependent
- direct bond with rMIF (rMIF [5]; FIG. 6, Tables 1 and 2): bonded directly with rMIF
- change of the dissociation constant value between oxidation state and reduction state (rMIF [5]): almost no changes in the dissociation constant values
- Kd (rMIF [5]; oxidation state): 25.3 µM
- Kd (rMIF [5]; [6]): 29.7 µM

Second part, led by results:

- direct bond with rMIF (rMIF [5]; FIG. 6, Tables 1 and 2): bonded directly with rMIF
- Kd (rMIF [5]; oxidation state): 11.9 µM
- Kd (rMIF [5]; [6]): 16.6 µM
B2: rDM TRX: the rTRX of Example 5 in which the cysteine residues at 32 and 35 positions were converted to serine (protein)
chain: T1 sequence (P10599 1-105) with C32S, C35S
modifications: left off: small tags and cut ends
- change of the dissociation constant value between oxidation state and reduction state (rMIF [5]): almost no changes in the dissociation constant values

- direct bond with rMIF (rMIF [5]; FIG. 6, Tables 1 and 2): bonded directly with rMIF
- Kd (rMIF [5]; oxidation state): 3.95 µM
B3: rC35S TRX: the rTRX of Example 5 in which the cysteine residue at 35 position was converted to serine (protein)
chain: T1 sequence (P10599 1-105) with C35S
modifications: left off: small tags and cut ends
- strength of the bond with rMIF compared with the other rTRX (rMIF [5]; FIG. 6, Tables 1 and 2): stronger than the bond between rWT TRX or rDM TRX and MIF
- change of the dissociation constant value between oxidation state and reduction state (rMIF [5]): strong bond with rMIF in the oxidation state
